Paper PMC3753642
Where two headings read alike, the source gives them in different places.

How the values were obtained:
Hfq TM [1] = target: T1, Hfq TM (Escherichia coli, UniProt P0A6X3 1-102, R16A;R17A;R19D); assay: fluorescence anisotropy
Hfq:R16A [2] = target: T2, Hfq:R16A (Escherichia coli, UniProt P0A6X3 1-102, R16A); assay: fluorescence anisotropy
Hfq WT [3] = target: T3, Hfq WT (Escherichia coli, UniProt P0A6X3 1-102); assay: fluorescence anisotropy
Hfq TM [4] = target: T1, Hfq TM; assay: fluorescence anisotropy; remark: listed apart in the source
Hfq:R16A,S65C-Cy3 = Hfq:R16A,S65C-Cy3 (Escherichia coli, UniProt P0A6X3 1-102, R16A;S65C); assay: stopped-flow FRET
Hfq:R16A [5] = target: T2, Hfq:R16A; assay: fluorescence anisotropy; remark: listed apart in the source
Hfq WT [6] = target: T3, Hfq WT; assay: fluorescence anisotropy; remark: listed apart in the source
Hfq:S38W = Hfq:S38W (Escherichia coli, UniProt P0A6X3 1-102, S38W); assay: Trp fluorescence quenching

Binder	Kd (Hfq:R16A [2])	Kd (Hfq WT [3])	binding result (Hfq:S38W)	also measured
AAAAAAAAAAAAAAAAAA (ssRNA) [A18]	2.3 nM	13.2 nM		Kd (Hfq TM [1]): 16.8 nM
CGAAUUUUUUAAGUGC (ssRNA) [D16]		22.5 nM		Kd (Hfq TM [4]): 17.5 nM; binding result (Hfq:R16A,S65C-Cy3): binds; Kd (Hfq:R16A [5]): 39.8 nM
GUGGUCAGUCGAGUGGUUUUUU (ssRNA) [Oligo CU]	0.07 nM		binds	Kd (Hfq WT [6]): 0.1 nM
CGAAUUUUUUAAGUGC (ssRNA) [D16 unlabeled]			binds	
GUGGUCAGUCGAGUGGAAAAAAAAAAAAAAAAAA (ssRNA) [Oligo CA]			binds	
